# Molecular target: linked SSB dimer with the D. radiodurans linker (SSB-LD-Drl) (E. coli | D. radiodurans)
# Assay: AUC
substance,measurement,value
linked SSB dimer with the D. radiodurans linker (SSB-LD-Drl),stoichiometry N,2
